The values below come from publication PMC9363494.

One assay addresses full-length α-synuclein (UniProt P37840). Description: NMR titration; 1H-15N HSQC of 0.3 mM 15N-enriched FL- or CT-α-syn titrated with PDI (mole ratios 10:1 to 1:1, 0-300 μM PDI); 20 mM HEPES, 100 mM NaCl, 5 mM TCEP, pH 7.0, 10% D2O, 15 °C; KD from fits of the average CSPs of residues in segment 1 and in segment 2.
A further assay has as its target Y39E-α-syn (UniProt P37840).

As to “protein disulfide isomerase, P07237 18-508 (enzyme; other documents disagree on this pair)”, in the assay with full-length α-synuclein, the KD of segment 1 worked out at 700 µM and the KD of segment 2 was found to be 400 µM.
Consider “protein disulfide isomerase (from UniProt P07237 18-508) (enzyme)”, for which, in the assay with Y39E-α-syn, the elongation rate constant (k) of aggregation of Y39E-α-syn with PDI, thioflavin T fluorescence (without PDI: ND, plateau was not reached) came to 0.21; the half-time (t1/2) of aggregation of Y39E-α-syn with PDI, thioflavin T fluorescence (without PDI: ND, plateau was not reached) was found to be 46 h; the lag time (tlag) of aggregation of Y39E-α-syn with PDI, thioflavin T fluorescence (without PDI: ND, plateau was not reached) came out at 36 h.
